Tested on: Saccharomyces cerevisiae
Test: transcriptional activation domain activity (GFP:mCherry ratio, weighted mean of sorted bins, harmonized to initial dataset scale) (arbitrary fluorescence ratio units); higher = stronger transcriptional activation
Details: beta-estradiol 1 µM; induction time 4 h
How it was run: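 Each value is an activation activity: the read-weighted mean of bin median fluorescence, averaged across barcodes, then mapped linearly to the initial dataset scale. The tiles, fused to an estradiol-inducible synthetic transcription factor, sat at the yeast URA3 locus in GFP-reporter diploids. Cells spent 4 hours at 30 °C in SC with 1 uM beta-estradiol before sorting into 8 GFP:mCherry bins, and tiles below 50 reads were removed.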

Sequence	transcriptional activation domain activity
YICQYHGSLIGKHFKSLMQVMPFLIYDLVAQDILCAWNIIGVLVVLLWHTEIE	81900
MASLRNHAEQLNAAVYRNYKKDRKVGEGAYAVVYLGTQLSTKKVVAIKKIKVG	49800
DTNLPTNPEAIQLHGDEDIKAWLVLAKNLAINPSRILVVLHRAVRGTQTPALG	40400
AAQKFVSDIAADAYQYARVRTNATTGGRSKAEKNAQGGSSAAAKDKSKTVLTL	29700
FLCIFFLSLFFYTFSISYLYVWCLPPPPRRQTCLPTLTFISLPFVSALFLSFG	59100
DCDIAQQQRFGAMFDDLLKSRETYFLRCSLSTWEIEHDVWWPFYLRSLEWCYF	50000
FGLLIAGWVCFFFFLSPLFPLFPLFPLFFFFFLLVGSPVSVYLWLGFLVWFGL	32800
MVEAQDSSLSSTLFYLSFLDIGATFYTFLLLFFFLEDLEGFLLFIVFWMLLLV	44100
GDKEKRKTSRRSRSPSRGRHQRRGGGGGEESRPRSESPRRRRRRLDSSARRDD	44400
HFILTYLLLFMSVPFEFVMASFEFFHLIHCLKFPNTFYSFFFSFVFFLRHFVF	56700
MYCVSFSHFYPPPLSFFHYGFDIFLFIFLIFFFCCPFLFAQVVVGYAICWYHT	51300
KFYVIYTLFMVVFFMVLTICYYTNGSYGRDALGLCNFKEWNGRLVSRVYMMYL	45000
SDSEEEDDAEKEDEEEEQRPKKTVKVEEVVKKAFGADGATVWVGQLSYEATSD	32500
MYSRIFIGLSFFLISFFISIIFLFICKEHSFSPIGFFLTRFLLFHVFSLFFTF	62800
VGISLFLIACKLYLTVYYNELLISNPASAKSIYKILEYVNIMVYVSKAFGMYQ	62800
ADRLIRILRILMFNWKFWNTGCFATYDPNSNLVRLEIPCSRDLLGTKPGTYYY	50200
MMNNNESEAENQRLLDELMNQTKVLQETLDFSLVTPTPHHNDDYKIHGSAYPG	47300
KAAKRGRNARRKRKDKPKGQDHEDEKSKINDDELEYASPSNATVTNGPQTSPD	14300
RRRFRNAKYFVHFIQLVRLLNICLQFEISNAEIEEVRVGFIAWVRRYEELYYQ	42800
DCDLTCDTPCTASTSATSGHKFVQDHQSSNNDDVFHKYCKFCEESTDNQPCSK	58300
EAPAPVEEQPVQEPEPEAIPEPEPVPQETPQAYEEPPAPEPKPAPTPKAQPVQ	23300

Sequence	transcriptional activation domain activity
MIELCLWVFSLLVLPRFGLRNFEVRINVALRELLLTITWGRLAIHVSLLRLVV	49000
RRDCATSSDARTPARLCCSHGVGTKLDKAETSREVSAEEARALADAHGARFCE	24300
LKIKLLVAWLWLLDTIHTCLLCSSNWRSLIVHYGDRRALDFIPTTTALGILFT	34100
PRLFPIASHLFFSLPHAKCCYPYLLLLLFPLLPLPFSLLVFCNLIFFFFFLFF	41300
WIIPTPFGSHAFHPVDGYFQSVPYHLFIFIFPLHRVLYLTLFVLVNFWSIFIH	61100
REEAERKAREEEAERKAARGRGEESEGRARKAGARRARGTPRGGKAGTRRGGE	43000
HMALVHLFAFLDRFALFGKLYRAAQVVNRVTSPYVVLAWTSLYSFSLRVVART	52400
EKERGRERERKERKVNGAWIKTKPKKRRDDSARARRHTRRRDVSSSASPTREM	25800
MFGYDSSRSSCSFLLPRESSIRLMVYFLYLLRVFYLLFFVFHLFLLPSSLFFF	41200
MCPVLFCFYSPMILIFFFFSSFSYLLYIHTILSWFVCLLFVCYYECFLLLSFS	44700
LTDWNVVSNKPITGPADPNEDVYIGRSETAMWMRVVSSWVCMLLYSWSLLAPV	68000
ELLDELLARNKSLVILVLDQIFMFILAWNRDYDRYDIQKIIGLYYIQSNVSLF	52100
VAVAREPFQEGADASGKLYNKDSLDDEDSRKYVVILNAFLQMLAALDELVLVL	76700
IYGSTAKPFPYTEGYHFLLKFVTEKFEKAEVLRIVRALGLFRPSLIALQMPLT	42800
IDVCLRERDANDYSRQVLGHYWENGIPLSSNRIIHDLLVILRNVIARVITAAK	42300
ILNVTVRLNFLTFVLQYLMDTDYLSYYFTPLVSFWFLAIWIIMYAGHTWNKIP	67300
MLSLKSFLPLQASLLFAAVGPISLFSLSDDVVRHIFCLKLQIFYLRFLLKWEH	43700
YIFMISLSSYSLSLINTLVSFGLLLLYTPSYRLWGWNPPFRAPKIIIFLFFLS	48300
EKQKKKRKRGKRRRRRRNEKEEKEGEEEEEEKQEAKEEAKEEAKEEAKKKEKK	24600
GGAAPAAAPADNRPPEERYAEQLRQLNDMGFFDFDRNVAALRRSGGSVQGAIE	44000
INPFFGFLPFFFFFLPHLLLHYLALFFYYYFWFVFFSVPYSCPLVFYLLVFFL	55200
